Experimental data from publication PMC4960241.

Target: Helicobacter pylori dimeric oxidoreductase DsbK (HP0231), native (Helicobacter pylori)
Test: SEC; size exclusion; conditions not shown (Supplementary Table S3)

Substance: Helicobacter pylori dimeric oxidoreductase DsbK (HP0231), native (enzyme)
- stoichiometry N: 2
